Source: patent US20140271457A1 (AbbVie / Abbott, published 2014)
Changes are numbered by the printed parent chain.

B1: DVD3097 (bispecific antibody)
heavy: not shown
light: DIQMTQSPSSLSASVGDRVTITCKASQLVSSAVAWYQQKPGKAPKLLIYWASTLHTGVPSRFSGSGSGTDFTLTISSLQPEDFATYYCQQHYRTPFTFGQGTKLEIKRTVAAPDVVMTQSPLSLPVTLGQPASISCRSSQSLVHSHGNTYLHWYQQRPGQSPRLLIYTVSNRFSGVPDRFSGSGSGTDFTLKISRVEAEDVGVYYCSQSTHVPYTFGGGTKVEIKRTVAAPSVFIFPPSDEQLKSGTASVVCLLNNFYPREAKVQWKVDNALQSGNSQESVTEQDSKDSTYSLSSTLTLSKADYEKHKVYACEVTHQGLSSPVTKSFNRGEC
B2: DVD3104 (bispecific antibody, human IgG1, kappa)
heavy: not shown
light: DIQMTQSPSSLSASVGDRVTITCRASQDISQYLNWYQQKPGKAPKLLIYYTSRLQSGVPSRFSGSGSGTDFTLTISSLQPEDFATYFCQQGNTWPPTFGQGTKLEIKRTVAAPDIQMTQSPSSLSASVGDRVTITCRASQLVSSAVAWYQQKPGKAPKLLIYWASARHTGVPSRFSGSGSGTDFTLTISSLQPEDFATYYCQQHYKTPFTFGQGTKLEIKRTVAAPSVFIFPPSDEQLKSGTASVVCLLNNFYPREAKVQWKVDNALQSGNSQESVTEQDSKDSTYSLSSTLTLSKADYEKHKVYACEVTHQGLSSPVTKSFNRGEC
B3: DVD3106 (bispecific antibody)
heavy: not shown
light: DIQMTQSPSSLSASVGDRVTITCRASQDISQYLNWYQQKPGKAPKLLIYYTSRLQSGVPSRFSGSGSGTDFTLTISSLQPEDFATYFCQQGNTWPPTFGQGTKLEIKRTVAAPSVFIFPPDVVMTQSPLSLPVTLGQPASISCRSSQSLVHSHGNTYLHWYQQRPGQSPRLLIYTVSNRFSGVPDRFSGSGSGTDFTLKISRVEAEDVGVYYCSQSTHVPYTFGGGTKVEIKRTVAAPSVFIFPPSDEQLKSGTASVVCLLNNFYPREAKVQWKVDNALQSGNSQESVTEQDSKDSTYSLSSTLTLSKADYEKHKVYACEVTHQGLSSPVTKSFNRGEC
B4: DVD3116 (bispecific antibody)
heavy: not shown
light: B3 light with S30E, Q31N, W94Q
B5: DVD3109 (bispecific antibody, human IgG1, kappa)
heavy: not shown
light: DVVMTQSPLSLPVTLGQPASISCRSSQSLVHSHGNTYLHWYQQRPGQSPRLLIYTVSNRFSGVPDRFSGSGSGTDFTLKISRVEAEDVGVYYCSQSTHVPYTFGGGTKVEIKRTVAAPDIQMTQSPSSLSASVGDRVTITCRASQDISQYLNWYQQKPGKAPKLLIYYTSRLQSGVPSRFSGSGSGTDFTLTISSLQPEDFATYFCQQGNTWPPTFGQGTKLEIKRTVAAPSVFIFPPSDEQLKSGTASVVCLLNNFYPREAKVQWKVDNALQSGNSQESVTEQDSKDSTYSLSSTLTLSKADYEKHKVYACEVTHQGLSSPVTKSFNRGEC
B6: DVD3112 (bispecific antibody, human IgG1, kappa)
heavy: not shown
light: B5 light
B7: DVD3107 (bispecific antibody)
heavy: not shown
light: DIQMTQSPSSLSASVGDRVTITCRASQDISQYLNWYQQKPGKAPKLLIYYTSRLQSGVPSRFSGSGSGTDFTLTISSLQPEDFATYFCQQGNTWPPTFGQGTKLEIKRTVAAPDVVMTQSPLSLPVTLGQPASISCRSSQSLVHSHGNTYLHWYQQRPGQSPRLLIYTVSNRFSGVPDRFSGSGSGTDFTLKISRVEAEDVGVYYCSQSTHVPYTFGGGTKVEIKRTVAAPSVFIFPPSDEQLKSGTASVVCLLNNFYPREAKVQWKVDNALQSGNSQESVTEQDSKDSTYSLSSTLTLSKADYEKHKVYACEVTHQGLSSPVTKSFNRGEC
B8: DVD3091 (bispecific antibody, human IgG1, kappa)
heavy: not shown
light: DVVMTQSPLSLPVTLGQPASISCRSSQSLVHSHGNTYLHWYQQRPGQSPRLLIYTVSNRFSGVPDRFSGSGSGTDFTLKISRVEAEDVGVYYCSQSTHVPYTFGGGTKVEIKRTVAAPSVFIFPPDIQMTQSPSSLSASVGDRVTITCRASQLVSSAVAWYQQKPGKAPKLLIYWASARHTGVPSRFSGSGSGTDFTLTISSLQPEDFATYYCQQHYKTPFTFGQGTKLEIKRTVAAPSVFIFPPSDEQLKSGTASVVCLLNNFYPREAKVQWKVDNALQSGNSQESVTEQDSKDSTYSLSSTLTLSKADYEKHKVYACEVTHQGLSSPVTKSFNRGEC
B9: DVD3101 (bispecific antibody, human IgG1, kappa)
heavy: not shown
light: B8 light with R149K, A178T, R179L, K218R
B10: DVD3088 (bispecific antibody, human IgG1, kappa)
heavy: not shown
light: DVVMTQSPLSLPVTLGQPASISCRSSQSLVHSHGNTYLHWYQQRPGQSPRLLIYTVSNRFSGVPDRFSGSGSGTDFTLKISRVEAEDVGVYYCSQSTHVPYTFGGGTKVEIKRGGSGGGGSGDIQMTQSPSSLSASVGDRVTITCRASQLVSSAVAWYQQKPGKAPKLLIYWASARHTGVPSRFSGSGSGTDFTLTISSLQPEDFATYYCQQHYKTPFTFGQGTKLEIKRTVAAPSVFIFPPSDEQLKSGTASVVCLLNNFYPREAKVQWKVDNALQSGNSQESVTEQDSKDSTYSLSSTLTLSKADYEKHKVYACEVTHQGLSSPVTKSFNRGEC
B11: DVD3098 (bispecific antibody, human IgG1, kappa)
heavy: not shown
light: B10 light with R146K, A175T, R176L, K215R
B12: DVD3103 (bispecific antibody, human IgG1, kappa)
heavy: not shown
light: DIQMTQSPSSLSASVGDRVTITCRASQDISQYLNWYQQKPGKAPKLLIYYTSRLQSGVPSRFSGSGSGTDFTLTISSLQPEDFATYFCQQGNTWPPTFGQGTKLEIKRGGSGGGGSGDIQMTQSPSSLSASVGDRVTITCRASQLVSSAVAWYQQKPGKAPKLLIYWASARHTGVPSRFSGSGSGTDFTLTISSLQPEDFATYYCQQHYKTPFTFGQGTKLEIKRTVAAPSVFIFPPSDEQLKSGTASVVCLLNNFYPREAKVQWKVDNALQSGNSQESVTEQDSKDSTYSLSSTLTLSKADYEKHKVYACEVTHQGLSSPVTKSFNRGEC
B13: DVD3111 (bispecific antibody, human IgG1, kappa)
heavy: not shown
light: DVVMTQSPLSLPVTLGQPASISCRSSQSLVHSHGNTYLHWYQQRPGQSPRLLIYTVSNRFSGVPDRFSGSGSGTDFTLKISRVEAEDVGVYYCSQSTHVPYTFGGGTKVEIKRTVAAPSVFIFPPDIQMTQSPSSLSASVGDRVTITCRASQDISQYLNWYQQKPGKAPKLLIYYTSRLQSGVPSRFSGSGSGTDFTLTISSLQPEDFATYFCQQGNTWPPTFGQGTKLEIKRTVAAPSVFIFPPSDEQLKSGTASVVCLLNNFYPREAKVQWKVDNALQSGNSQESVTEQDSKDSTYSLSSTLTLSKADYEKHKVYACEVTHQGLSSPVTKSFNRGEC
B14: DVD3089 (bispecific antibody, human IgG1, kappa)
heavy: not shown
light: DVVMTQSPLSLPVTLGQPASISCRSSQSLVHSHGNTYLHWYQQRPGQSPRLLIYTVSNRFSGVPDRFSGSGSGTDFTLKISRVEAEDVGVYYCSQSTHVPYTFGGGTKVEIKRTVAAPDIQMTQSPSSLSASVGDRVTITCRASQLVSSAVAWYQQKPGKAPKLLIYWASARHTGVPSRFSGSGSGTDFTLTISSLQPEDFATYYCQQHYKTPFTFGQGTKLEIKRTVAAPSVFIFPPSDEQLKSGTASVVCLLNNFYPREAKVQWKVDNALQSGNSQESVTEQDSKDSTYSLSSTLTLSKADYEKHKVYACEVTHQGLSSPVTKSFNRGEC
B15: DVD3099 (bispecific antibody, human IgG1, kappa)
heavy: not shown
light: B14 light with R142K, A171T, R172L, K211R
B16: DVD3092 (bispecific antibody, human IgG1, kappa)
heavy: not shown
light: B14 light
B17: DVD3102 (bispecific antibody, human IgG1, kappa)
heavy: not shown
light: B14 light with R142K, A171T, R172L, K211R

These binders were tested against Recombinant Human IL-13 (human, UniProt P35225 35-146, limits assumed) (assay: cell-based or functional assay).
Chain of Recombinant Human IL-13 (P35225 35-146 limits assumed): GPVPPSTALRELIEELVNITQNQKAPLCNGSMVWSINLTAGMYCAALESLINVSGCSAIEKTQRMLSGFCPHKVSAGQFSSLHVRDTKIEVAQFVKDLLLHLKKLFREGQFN

IL-13 Neutralization Assay IC50 [nM] | Binder
0.072 | B1
1.05 | B2
0.074 | B3
0.081 | B4
0.044 | B5
0.017 | B6
0.029 | B7
0.056 | B8
0.037 | B9
0.103 | B10
0.059 | B11
0.042 | B12
0.018 | B13
0.074 | B14
0.014 | B15
0.06 | B16
0.025 | B17
